According to paper PMC7458484:

Target: HBV core protein Cp185 (full-length) (hepatitis B virus (Human); compared to …, UniProt Q67855 1-185)
Assay: time-resolved SAXS (stopped flow), SEC capsid assembly; after mixing ~1 RNA per 6.5 Cp185 monomers; RNA in assembly buffer; RNA added to dimers in disassembly buffer immediately triggered capsid formation; Cp185 in 1.5 M GuHCl, 0.5 M LiCl, 50 mM HEPES pH 7.5, 2 mM DTT mixed 1:1 with assembly buffer 250 mM NaCl, 50 mM HEPES pH 7.5, 2 mM DTT; RNA 0.075 mg/mL final

## GGGUUUGUUUAAAGACUGGGAGGAGUUGGGGGAGGAGCCC (structured_RNA) [PS1 RNA oligo (40 nt, RNA40)]
  binding result: binds
